Article PMC7448930

Target: HCoV-19 fusion core (HR1 and HR2 linked with a peptide linker) (HCoV-19)
Assay: crystal structure; HR1 and HR2 linked on one chain by a peptide linker; 1.5 Å; one HR1/HR2 complex in the asymmetric unit, trimer by symmetry operations

Substance: HCoV-19 fusion core (HR1 and HR2 linked with a peptide linker) (domain or fragment)
- stoichiometry N: 3
